Results as given in patent publication US11278600B2, “Human alpha-galactosidase variants” (Codexis, Inc., priority 2014, dated 2022).
Where a chain is given by its changes, count along the chain named.

B1: 188 (protein)
chain: LDNGLARTPTMGWLHWERFMCNLDCQEEPDSCISEKLFMEMAELMVSEGWKDAGYEYLCIDDCWMAPQRDSEGRLQADPQRFPHGIRQLANYVHSKGLKLGIYADVGNKTCAGFPGSFGYYDIDAQTFADWGVDLLKFDGCYCDSLENLADGYKHMSLALNRTGRSIVYSCEWPLYMWPFQKPNYTEIRQYCNHWRNFADIDDSWKSIKSILDWTSFNQERIVDVAGPGGWNDPDMLVIGNFGLSWNQQVTQMALWAIMAAPLFMSNDLRHISPQAKALLQDKDVIAINQDPLGKQGYQLRQGDNFEVWERPLSGLAWAVAMINRQEIGGPRSYTIAVASLGKGVACNPACFITQLLPEKRKLGFYEWTSRLRSHINPTGTVLLQLENTMQMSKDLLL
modifications: Synthetic Polypeptide sequence of Variant No. 188 of mature Human GLA
B2: 189 (protein)
chain: B1 chain with V93I, E359V
modifications: Synthetic Polypeptide sequence of Variant No. 189 of mature Human GLA
B3: 190 (protein)
chain: B1 chain with W178H, E359V
modifications: Synthetic Polypeptide sequence of Variant No. 190 of mature Human GLA
B4: 191 (protein)
chain: B1 chain with W178S, E359V
modifications: Synthetic Polypeptide sequence of Variant No. 191 of mature Human GLA
B5: 40 (protein)
chain: B1 chain with E359V, L396R
modifications: Synthetic Polypeptide sequence of Variant No. 40 of mature Human GLA
B6: 41 (protein)
chain: B1 chain with E359V, L396T
modifications: Synthetic Polypeptide sequence of Variant No. 41 of mature Human GLA
B7: 42 (protein)
chain: B1 chain with E359V, E367N
modifications: Synthetic Polypeptide sequence of Variant No. 42 of mature Human GLA
B8: 43 (protein)
chain: B1 chain with E359V, E367T
modifications: Synthetic Polypeptide sequence of Variant No. 43 of mature Human GLA
B9: 44 (protein)
chain: B1 chain with E359V, E387K
modifications: Synthetic Polypeptide sequence of Variant No. 44 of mature Human GLA
B10: 45 (protein)
chain: B1 chain with E359V, E387Q
modifications: Synthetic Polypeptide sequence of Variant No. 45 of mature Human GLA
B11: 46 (protein)
chain: B1 chain with E359V, E387R
modifications: Synthetic Polypeptide sequence of Variant No. 46 of mature Human GLA
B12: 47 (protein)
chain: B1 chain with E359V, E387T
modifications: Synthetic Polypeptide sequence of Variant No. 47 of mature Human GLA
B13: 48 (protein)
chain: B1 chain with E40D, E359V
modifications: Synthetic Polypeptide sequence of Variant No. 48 of mature Human GLA
B14: 49 (protein)
chain: B1 chain with F180R, E359V
modifications: Synthetic Polypeptide sequence of Variant No. 49 of mature Human GLA
B15: 50 (protein)
chain: B1 chain with F180S, E359V
modifications: Synthetic Polypeptide sequence of Variant No. 50 of mature Human GLA
B16: 51 (protein)
chain: B1 chain with F198S, E359V
modifications: Synthetic Polypeptide sequence of Variant No. 51 of mature Human GLA

Test: HTP-analysis of supernatants pretreated with acid (MUGal hydrolysis)
Type: biochemical
Conditions: challenge at pH 4.2; activity of the variant/activity of WT GLA (SEQ ID NO: 5); yeast supernatant
How it was run: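 Supernatants from INVSc1 yeast secreting GLA variants were challenged at 37° C. for 1-3 h in McIlvaine buffer at pH 3.3-4.3. Residual activity was then measured on 4 mM MUGal substrate stock at pH 4.8 with citrate buffer pH 4.3, over 30-180 min at 37° C. Reactions were quenched with sodium carbonate and read by fluorescence (Ex 355/Em 448 nm).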

Row | Molecule | Relative Activity of GLA Variants After Challenge at pH 4.2
1 | B1 | + (+ = 0.5 to 1.5 relative activity over WT GLA (SEQ ID NO: 5))
2 | B2 | + (+ = 0.5 to 1.5 relative activity over WT GLA (SEQ ID NO: 5))
3 | B3 | + (+ = 0.5 to 1.5 relative activity over WT GLA (SEQ ID NO: 5))
4 | B4 | ++ (++ = >1.5 to 2.5 relative activity over WT GLA (SEQ ID NO: 5))
5 | B5 | ++ (++ = >1.5 to 2.5 relative activity over WT GLA (SEQ ID NO: 5))
6 | B6 | + (+ = 0.5 to 1.5 relative activity over WT GLA (SEQ ID NO: 5))
7 | B7 | +++ (+++ = >2.5 relative activity over WT GLA (SEQ ID NO: 5))
8 | B8 | + (+ = 0.5 to 1.5 relative activity over WT GLA (SEQ ID NO: 5))
9 | B9 | ++ (++ = >1.5 to 2.5 relative activity over WT GLA (SEQ ID NO: 5))
10 | B10 | ++ (++ = >1.5 to 2.5 relative activity over WT GLA (SEQ ID NO: 5))
11 | B11 | +++ (+++ = >2.5 relative activity over WT GLA (SEQ ID NO: 5))
12 | B12 | ++ (++ = >1.5 to 2.5 relative activity over WT GLA (SEQ ID NO: 5))
13 | B13 | + (+ = 0.5 to 1.5 relative activity over WT GLA (SEQ ID NO: 5))
14 | B14 | + (+ = 0.5 to 1.5 relative activity over WT GLA (SEQ ID NO: 5))
15 | B15 | ++ (++ = >1.5 to 2.5 relative activity over WT GLA (SEQ ID NO: 5))
16 | B16 | ++ (++ = >1.5 to 2.5 relative activity over WT GLA (SEQ ID NO: 5))

Test: HTP-analysis of yeast culture supernatants, no challenge (MUGal hydrolysis)
Type: biochemical
Conditions: activity of the variant/activity of WT GLA (SEQ ID NO: 5), yeast supernatant
How it was run: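 Activity read as 4-methylumbelliferyl α-D-galactopyranoside hydrolysis: fluorescence (355/448 nm) after sodium carbonate stop, following 30-180 min at 37° C with 2 mM MUGal stock at pH 4.6–4.8. Enzyme source is unchallenged culture supernatant of INVSc1 yeast expressing GLA variants, grown 66-84 h at 30° C.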

Row | Molecule | Relative Activity of GLA Variants After No Challenge (NC)
17 | B1 | + (+ = 0.5 to 1.5 relative activity over WT GLA (SEQ ID NO: 5))
18 | B2 | + (+ = 0.5 to 1.5 relative activity over WT GLA (SEQ ID NO: 5))
19 | B3 | ++ (++ = >1.5 to 2.5 relative activity over WT GLA (SEQ ID NO: 5))
20 | B4 | + (+ = 0.5 to 1.5 relative activity over WT GLA (SEQ ID NO: 5))
21 | B5 | ++ (++ = >1.5 to 2.5 relative activity over WT GLA (SEQ ID NO: 5))
22 | B6 | + (+ = 0.5 to 1.5 relative activity over WT GLA (SEQ ID NO: 5))
23 | B7 | +++ (+++ = >2.5 relative activity over WT GLA (SEQ ID NO: 5))
24 | B8 | + (+ = 0.5 to 1.5 relative activity over WT GLA (SEQ ID NO: 5))
25 | B9 | + (+ = 0.5 to 1.5 relative activity over WT GLA (SEQ ID NO: 5))
26 | B10 | ++ (++ = >1.5 to 2.5 relative activity over WT GLA (SEQ ID NO: 5))
27 | B11 | + (+ = 0.5 to 1.5 relative activity over WT GLA (SEQ ID NO: 5))
28 | B12 | + (+ = 0.5 to 1.5 relative activity over WT GLA (SEQ ID NO: 5))
29 | B13 | + (+ = 0.5 to 1.5 relative activity over WT GLA (SEQ ID NO: 5))
30 | B14 | + (+ = 0.5 to 1.5 relative activity over WT GLA (SEQ ID NO: 5))
31 | B15 | ++ (++ = >1.5 to 2.5 relative activity over WT GLA (SEQ ID NO: 5))
32 | B16 | ++ (++ = >1.5 to 2.5 relative activity over WT GLA (SEQ ID NO: 5))

Test: HTP-analysis of supernatants pretreated with base (MUGal hydrolysis)
Type: biochemical
Conditions: challenge at pH 7.1; activity of the variant/activity of WT GLA (SEQ ID NO: 5); yeast supernatant
How it was run: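 Supernatants from INVSc1 yeast expressing GLA variants (SD-Ura, 66-84 h, 30° C) were mixed with McIlvaine buffer pH 7.0-8.2 or 200 mM sodium bicarbonate pH 9.1-9.7 and held 1-18 h at 37° C. Residual activity was then measured on MUGal at pH 4.8/4.3, 37° C, 30-180 min, by fluorescence (Ex 355/Em 448 nm).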

Row | Molecule | Relative Activity of GLA Variants After Challenge at pH 7.1
33 | B1 | + (+ = 0.5 to 1.5 relative activity over WT GLA (SEQ ID NO: 5))
34 | B2 | + (+ = 0.5 to 1.5 relative activity over WT GLA (SEQ ID NO: 5))
35 | B3 | ++ (++ = >1.5 to 2.5 relative activity over WT GLA (SEQ ID NO: 5))
36 | B4 | + (+ = 0.5 to 1.5 relative activity over WT GLA (SEQ ID NO: 5))
37 | B5 | ++ (++ = >1.5 to 2.5 relative activity over WT GLA (SEQ ID NO: 5))
38 | B6 | + (+ = 0.5 to 1.5 relative activity over WT GLA (SEQ ID NO: 5))
39 | B7 | +++ (+++ = >2.5 relative activity over WT GLA (SEQ ID NO: 5))
40 | B8 | + (+ = 0.5 to 1.5 relative activity over WT GLA (SEQ ID NO: 5))
41 | B9 | + (+ = 0.5 to 1.5 relative activity over WT GLA (SEQ ID NO: 5))
42 | B10 | ++ (++ = >1.5 to 2.5 relative activity over WT GLA (SEQ ID NO: 5))
43 | B11 | + (+ = 0.5 to 1.5 relative activity over WT GLA (SEQ ID NO: 5))
44 | B12 | + (+ = 0.5 to 1.5 relative activity over WT GLA (SEQ ID NO: 5))
45 | B13 | + (+ = 0.5 to 1.5 relative activity over WT GLA (SEQ ID NO: 5))
46 | B14 | + (+ = 0.5 to 1.5 relative activity over WT GLA (SEQ ID NO: 5))
47 | B15 | ++ (++ = >1.5 to 2.5 relative activity over WT GLA (SEQ ID NO: 5))
48 | B16 | + (+ = 0.5 to 1.5 relative activity over WT GLA (SEQ ID NO: 5))
